Here are results for one molecule from patent publication US20190055314A1 (ADAGENE, published 2019).

Assay [1] deals with T1, CD120a.
T1 chain: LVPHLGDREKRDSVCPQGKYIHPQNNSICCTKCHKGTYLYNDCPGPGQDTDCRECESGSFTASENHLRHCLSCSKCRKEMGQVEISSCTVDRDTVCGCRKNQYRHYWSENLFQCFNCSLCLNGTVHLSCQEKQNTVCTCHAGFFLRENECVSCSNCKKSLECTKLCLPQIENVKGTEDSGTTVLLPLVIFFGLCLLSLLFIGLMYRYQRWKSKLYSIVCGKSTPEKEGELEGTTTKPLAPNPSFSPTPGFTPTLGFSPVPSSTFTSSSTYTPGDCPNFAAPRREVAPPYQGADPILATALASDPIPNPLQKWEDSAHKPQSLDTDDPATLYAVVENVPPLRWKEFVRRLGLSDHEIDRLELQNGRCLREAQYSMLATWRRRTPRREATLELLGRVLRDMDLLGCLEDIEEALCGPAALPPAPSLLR
Nature of the assay: flow cytometry, HEK293F cells expressing the receptor [Cont.]. (Flow cytometry measures light scatter and fluorescence of single cells or particles in a stream.)
Method: (§1) The selectivity of antibodies for CD137 was evaluated using flow cytometry analysis of their binding ability to members of TNFR superfamily. The TNFRSF receptors including CD137, OX40, CD40, GITR and CD27 were transiently overexpressed on the surface of HEK293F cells. Transfected cells were washed in pre-chilled staining buffer (PBS supplemented with 2% FBS), then incubated with 100 nM test antibodies for 1 hr on ice. […] Samples were washed once with staining buffer prior to analysis by flow cytometry.

Assay [2] addresses T2, CD95.
T2 chain: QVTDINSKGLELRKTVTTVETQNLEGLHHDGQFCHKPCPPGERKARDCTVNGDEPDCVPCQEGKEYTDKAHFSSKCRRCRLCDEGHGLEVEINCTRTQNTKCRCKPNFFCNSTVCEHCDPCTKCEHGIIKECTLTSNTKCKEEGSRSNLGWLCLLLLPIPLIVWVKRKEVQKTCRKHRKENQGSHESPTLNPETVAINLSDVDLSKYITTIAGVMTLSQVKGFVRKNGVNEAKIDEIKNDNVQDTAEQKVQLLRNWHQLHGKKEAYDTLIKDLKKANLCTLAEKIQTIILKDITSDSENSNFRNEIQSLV
The description is as above.
Method: as §1

B1: AG10059 (antibody, human IgG4 S228P, kappa, V domains shown)
VH: EVQLVESGGGLVQPGGSLRLSCAASGYSITSGHYWAWIRQAPGKGLEWVSSISGYGSTTYYADSVKGRFTISRDNSKNTLYLQLNSLRAEDTAVYYCARGGSDAVLGDWFAYWGQGTLVTVSS
VL: DIQLTQSPSSLSASVGDRVTITCRASQGIGSFLAWYQQKPGKAPKLLIYDASNLETGVPSRFSGSGSGTDFTLTISSLQPEDFATYYCQQGYYLWTFGQGTKVEIKR
For the molecule B1, the binding result in assay [1] and in assay [2] was “no binding (tested: 100 nM (text paragraph 226))” throughout.
